The target of this experiment is Circumsporozoite protein (CSP) (Plasmodium falciparum (isolate 3D7), UniProt Q7K740). Nature of the experiment: AVEXIS screen signal:noise (double-corrected).

No end group written: not given here.

Drawing on paper PMC11098746 (2024), this text covers binding score for 14 molecules.

Circumsporozoite protein (CSP), sequence (Q7K740 19-374): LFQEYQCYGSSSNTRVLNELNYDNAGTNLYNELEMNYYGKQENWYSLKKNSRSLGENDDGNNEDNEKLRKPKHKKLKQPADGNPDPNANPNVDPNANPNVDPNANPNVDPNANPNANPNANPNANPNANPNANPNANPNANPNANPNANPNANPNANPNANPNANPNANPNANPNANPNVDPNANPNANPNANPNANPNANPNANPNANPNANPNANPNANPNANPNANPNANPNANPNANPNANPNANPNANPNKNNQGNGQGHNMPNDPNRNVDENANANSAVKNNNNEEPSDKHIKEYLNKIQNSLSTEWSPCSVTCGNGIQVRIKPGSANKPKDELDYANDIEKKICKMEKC

B1: ADP396 (protein)
chain: PSLIKQQVLKNVRIDPSSLSFNMWKEIPIPFYLSVYFFDVMNPSEILKGEKPQVRERGPYVYREFRHKSNITFNNNDTVSFLEYRTFQFQPSKSHGSESDYIVMPNILVLGAAVMMENKPMTLKLIMTLAFTTLGERAFMNRTVGEIMWGYKDPLVNLINKYFPGMFPFKDKFGLFAELNNSDSGLFTVFTGVQNISRIHLVDKWNGLSKVDFWHSDQCNMINGTSGQMWPPFMTPESSLEFYSPEACRSMKLMYKESGVFEGIPTYRFVAPKTLFANGSIYPPNEGFCPCLESGIQNVSTCRFSAPLFLSHPHFLNADPVLAEAVTGLHPNQEAHSLFLDIHPVTGIPMNCSVKLQLSLYMKSVAGIGQTGKIEPVVLPLLWFAESGAMEGETLHTFYTQLVLMPKVMHY
modifications: bait human Fc-tagged dimer
On to B1, for which the binding score was determined as 2.67.

B2: ADP366 (protein)
chain: MESKGASSCRLLFCLLISATVFRPGLGWYTVNSAYGDTIIIPCRLDVPQNLMFGKWKYEKPDGSPVFIAFRSSTKKSVQYDDVPEYKDRLNLSENYTLSISNARISDEKRFVCMLVTEDNVFEAPTIVKVFKQPSKPEIVSKALFLETEQLKKLGDCISEDSYPDGNITWYRNGKVLHPLEGAVVIIFKKEMDPVTQLYTMTSTLEYKTTKADIQMPFTCSVTYYGPSGQKTIHSEQAVFDIYYPTEQVTIQVLPPKNAIKEGDNITLKCLGNGNPPPEEFLFYLPGQPEGIRSSNTYTLTDVRRNATGDYKCSLIDKKSMIASTAITVHYLDLSLNPSGEVTRQIGDALPVSCTISASRNATVVWMKDNIRLRSSPSFSSLHYQDAGNYVCETALQEVEGLKKRESLTLIVEGKPQIKMTKKTDPSGLSKTIICHVEGFPKPAIQWTITGSGSVINQTEESPYINGRYYSKIIISPEENVTLTCTAENQLERTVNSLNVSAISIPEHDEADEISDENREKVNDQAK
modifications: bait human Fc-tagged dimer
B2: the binding score was 3.25.

B3: ADP287 (protein)
chain: MANPGLGLLLALGLPFLLARWGRAWGQIQTTSANENSTVLPSSTSSSSDGNLRPEAITA
modifications: also: human Fc-tagged dimer
The molecule B3 returned a binding score of 1.47.

B4: ADP288 (protein)
chain: MDHSHHMGMSYMDSNSTMQPSHHHPTTSASHSHGGGDSSMMMMPMTFYFGFKNVELLFSGL
modifications: also: human Fc-tagged dimer
For B4, the binding score came out at 0.576.

B5: ADP390 (protein)
chain: GTDDATADSRKTYTLTDYLKNTYRLKLYSLRWISDHEYLYKQENNILVFNAEYGNSSVFLENSTFDEFGHSINDYSISPDGQFILLEYNYVKQWRHSYTASYDIYDLNKRQLITEERIPNNTQWVTWSPVGHKLAYVWNNDIYVKIEPNLPSYRITWTGKEDIIYNGITDWVYEEEVFSAYSALWWSPNGTFLAYAQFNDTEVPLIEYSFYSDESLQYPKTVRVPYPKAGAVNPTVKFFVVNTDSLSSVTNATSIQITAPASMLIGDHYLCDVTWATQERISLQWLRRIQNYSVMDICDYDESSGRWNCLVARQHIEMSTTGWVGRFRPSEPHFTLDGNSFYKIISNEEGYRHICYFQIDKKDCTFITKGTWEVIGIEALTSDYLYYISNEYKGMPGGRNLYKIQLSDYTKVTCLSCELNPERCQYYSVSFSKEAKYYQLRCSGPGLPLYTLHSSVNDKGLRVLEDNSALDKMLQNVQMPSKKLDFIILNETKFWYQMILPPHFDKSKKYPLLLDVYAGPCSQKADTVFRLNWATYLASTENIIVASFDGRGSGYQGDKIMHAINRRLGTFEVEDQIEAARQFSKMGFVDNKRIAIWGWSYGGYVTSMVLGSGSGVFKCGIAVAPVSRWEYYDSVYTERYMGLPTPEDNLDHYRNSTVMSRAENFKQVEYLLIHGTADDNVHFQQSAQISKALVDVGVDFQAMWYTDEDHGIASSTAHQHIYTHMSHFIKQCFSLP
modifications: bait human Fc-tagged dimer
Regarding B5, the binding score was determined as 0.756.

B6: ADP101 (protein)
chain: MWSTRSPNSTAWPLSLEPDPGMASASTTMHTTTIAEPDPGMSGWPDGRMETSTPTIMD
modifications: also: human Fc-tagged dimer
Molecule B6 returned a binding score of 1.1.

B7: ADP150 (protein)
chain: MALQLWALTLLGLLGAGASLRPRKLDFFRSEKELNHLAVDEASGVVYLGAVNALYQLDAKLQLEQQVATGPALDNKKCTPPIEASQCHEAEMTDNVNQLLLLDPPRKRLVECGSLFKGICALRALSNISLRLFYEDGSGEKSFVASNDEGVATVGLVSSTGPGGDRVLFVGKGNGPHDNGIIVSTRLLDRTDSREAFEAYTDHATYKAGYLSTNTQQFVAAFEDGPYVFFVFNQQDKHPARNRTLLARMCREDPNYYSYLEMDLQCRDPDIHAAAFGTCLAASVAAPGSGRVLYAVFSRDSRSSGGPGAGLCLFPLDKVHAKMEANRNACYTGTREARDIFYKPFHGDIQCGGHAPGSSKSFPCGSEHLPYPLGSRDGLRGTAVLQRGGLNLTAVTVAAENNHTVAFLGTSDGRILKVYLTPDGTSSEYDSILVEINKRVKRDLVLSGDLGSLYAMTQDKVFRLPVQECLSYPTCTQCRDSQDPYCGWCVVEGRCTRKAECPRAEEASHWLWSRSKSCVAVTSAQPQNMSRRAQGEVQLTVSPLPALSEEDELLCLFGESPPHPARVEGEAVICNSPSSIPVTPPGQDHVAVTIQLLLRRGNIFLTSYQYPFYDCRQAMSLEENLPCISCVSNRWTCQWDLRYHECREASPNPEDGIVRAHMEDSCPQFLGPSPLVIPMNHETDVNFQGKNLDTVKGSSLHVGSDLLKFMEPVTMQESGTFAFRTPKLSHDANETLPLHLYVKSYGKNIDSKLHVTLYNCSFGRSDCSLCRAANPDYRCAWCGGQSRCVYEALCNTTSECPPPVITRIQPETGPLGGGIRITILGSNLGVQAGDIQRISVAGRNCSFQPERYSVSTRIVCVIEAAETPFTGGVEVDVFGKLGRSPPNVQFTFQQPKPLSVEPQQGPQAGGTTLTIHGTHLDTGSQEDVRVTLNGVPCKVTKFGAQLQCVTGPQATRGQMLLEVSYGGSPVPNPGIFFTYRENPVLRAFEPLRSFASGGRSINVTGQGFSLIQRFAMVVIAEPLQSWQPPREAESLQPMTVVGTDYVFHNDTKVVFLSPAVPEEPEAYNLTVLIEMDGHRALLRTEAGAFEYVPDPTFENFTGGVKKQVNKLIHARGTNLNKAMTLQEAEAFVGAERCTMKTLTETDLYCEPPEVQPPPKRRQKRDTTHNLPEFIVKFGSREWVLGRVEYDTRVSDVP
modifications: bait human Fc-tagged dimer
With B7, the binding score worked out at 0.742.

B8: ADP097 (protein)
chain: SPPRKREEAAAVPAAAPDDLALLKNLRSEEQKKKNRKKLSEKPKPNGRTVEVAEGEAVRTPQSVTAKQPPEIDKKNEKSKKNKKKSKSDAKAVQNSSRHDGKEVDEGAWETKISHREKRQQRKRDKVLTDSGSLDSTIPGIENTITVTTEQLTTASFPVGSKKNKGDSHLNVQVSNFKSGKGDSTLQVSSGLNENLTVNGGGWNEKSVKLSSQISAGEEKWNSVSPASAGKRKTEPSAWSQDTGDANTNGKDWGRSWSDRSIFSGIGSTAEPVSQSTTSDYQWDVSRNQPYIDDEWSGLNGLSSADPNSDWNAPAEEWGNWVDEERASLLKSQEPIPDDQKVSDDDKEKGEGALPTGKSKKKKKKKKKQGEDNSTAQDTEELEKEIREDLPVNTSKTRPKQEKAFSLKTISTSDPAEVLVKNSQPIKTLPPATSTEPSVILSKSDSDKSSSQVPPILQETDKSKSNTKQNSVPPSQTKSETSWESPKQIKKKKKARRET
modifications: bait human Fc-tagged dimer
In turn, B8 displayed a binding score of 1.17.

B9: ADP329 (protein)
chain: MAPPGSSTVFLLALTIIASTWALTPTHYLTKHDVERLKASLDRPFTNLESAFYSIVGLSSLGAQVPDAKKACTYIRSNLDPSNVDSLFYAAQASQALSGCEISISNETKDLLLAAVSEDSSVTQIYHAVAALSGFGLPLASQEALSALTARLSKEETVLATVQALQTASHLSQQADLRSIVEEIEDLVARLDELGGVYLQFEEGLETTALFVAATYKLMDHVGTEPSIKEDQVIQLMNAIFSKKNFESLSEAFSVASAAAVLSHNRYHVPVVVVPEGSASDTHEQAILRLQVTNVLSQPLTQATVKLEHAKSVASRATVLQKTSFTPVGDVFELNFMNVKFSSGYYDFLVEVEGDNRYIANTVELRVKISTEVGITNVDLSTVDKDQSIAPKTTRVTYPAKAKGTFIADSHQNFALFFQLVDVNTGAELTPHQTFVRLHNQKTGQEVVFVAEPDNKNVYKFELDTSERKIEFDSASGTYTLYLIIGDATLKNPILWNVADVVIKFPEEEAPSTVLSQNLFTPKQEIQHLFREPEKRPPTV
modifications: bait human Fc-tagged dimer
B9 gave a binding score of 0.882.

B10: ADP102 (protein)
chain: MARGAALALLLFGLLGVLVAAPDGGFDLSDALPDNENKKPTAIPKKPSAGDDFDLGDAVVDGENDDPRPPNPPKPMPNPNPNHPSSSGSFSDADLADGVSGGEGKGGSDGGGSHRKEGEEADAP
modifications: bait human Fc-tagged dimer
Consider B10, for which the binding score stood at 0.919.

B11: ADP301 (protein)
chain: MAKLIALTLLGMGLALFRNHQSSYQTRLNALREVQPVELPNCNLVKGIETGSEDLEILPNGLAFISSGLKYPGIKSFNPNSPGKILLMDLNEEDPTVLELGITGSKFDVSSFNPHGISTFTDEDNAMYLLVVNHPDAKSTVELFKFQEEEKSLLHLKTIRHKLLPNLNDIVAVGPEHFYGTNDHYFLDPYLQSWEMYLGLAWSYVVYYSPSEVRVVAEGFDFANGINISPDGKYVYIAELLAHKIHVYEKHANWTLTPLKSLDFNTLVDNISVDPETGDLWVGCHPNGMKIFFYDSENPPASEVLRIQNILTEEPKVTQVYAENGTVLQGSTVASVYKGKLLIGTVFHKALYCEL
modifications: bait human Fc-tagged dimer
In turn, B11 came in with a binding score of 1.58.

B12: ADP348 (protein)
chain: MAASAGAGAVIAAPDSRRWLWSVLAAALGLLTAGVSALEVYTPKEIFVANGTQGKLTCKFKSTSTTGGLTSVSWSFQPEGADTTVSFFHYSQGQVYLGNYPPFKDRISWAGDLDKKDASINIENMQFIHNGTYICDVKNPPDIVVQPGHIRLYVVEKENLPVFP
modifications: bait human Fc-tagged dimer
Molecule B12 had a binding score of 0.706.

B13: ADP142 (protein)
chain: MGLGARGAWAALLLGTLQVLALLGAAHESAAMAASANIENSGLPHNSSANSTETLQHVPSDHTNETSNSTVKPPTSVASDSSNTTVTTMKPTAASNTTTPGMVSTNMTSTTLKSTPKTTSVSQNTSQISTSTMTVTHNSSVTSAASSVTITTTMHSEAKKGSKFDTGS
modifications: bait human Fc-tagged dimer
The molecule B13 returned a binding score of 0.7.

B14: ADP285 (protein)
chain: LTQGYNNWTNGLYGYSWDMMVHSRSHQHVKITYRDGRTGELGYLNPGVFTQSRRWKDHADMLKQYATCLSRLLPKYNVTEPQIYFDIWVSINDRFQQRIFDPRVDIVQAAWSPFQRTSWVQPLLMDLSPWRAKLQEIKSSLDNHTEVVFIADFPGLHLENFVSEDLGNTSIQLLQGEVTVELVAEQKNQTLREGEKMQLPAGEYHKVYTTSPSPSCYMYVYVNTTELALEQDLAYLQELKEKVENGSETGPLPPELQPLLEGEVKGGPEPTPLVQTFLRRQQRLQEIERRRNTPFHERFFRFLLRKLYVFRRSFLMTCISLRNLILGRPSLEQLAQEVTYANLRPFEAVGELNPSNTDSSHSNPPESNPDPVHSEF
modifications: bait human Fc-tagged dimer
For the molecule B14, the binding score is 0.774.
